Data on one molecule can be found in patent publication US20210030804A1.

For the assay, the target named is CD19 on Nalm6 leukemia cells (UniProt P15391). Description: cell-based or functional assay.
Chain of UniProt P15391 (P15391 20-556 limits assumed): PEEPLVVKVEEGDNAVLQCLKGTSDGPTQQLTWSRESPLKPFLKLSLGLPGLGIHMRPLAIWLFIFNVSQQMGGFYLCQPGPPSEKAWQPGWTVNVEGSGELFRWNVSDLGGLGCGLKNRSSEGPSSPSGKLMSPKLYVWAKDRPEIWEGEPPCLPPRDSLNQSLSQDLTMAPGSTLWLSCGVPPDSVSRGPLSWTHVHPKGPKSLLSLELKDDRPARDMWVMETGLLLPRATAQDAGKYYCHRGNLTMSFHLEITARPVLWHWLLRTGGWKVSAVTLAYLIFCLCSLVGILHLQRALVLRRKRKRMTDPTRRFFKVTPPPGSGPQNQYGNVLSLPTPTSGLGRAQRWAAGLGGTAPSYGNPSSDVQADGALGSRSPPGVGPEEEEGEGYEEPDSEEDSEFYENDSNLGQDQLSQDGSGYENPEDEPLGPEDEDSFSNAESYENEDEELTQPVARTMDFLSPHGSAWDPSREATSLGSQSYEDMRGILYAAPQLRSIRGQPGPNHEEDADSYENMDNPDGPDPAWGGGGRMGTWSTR

B1: CD19 CAR (receptor, from a related filing)
chain: EVKLQQSGAELVRPGSSVKISCKASGYAFSSYWMNWVKQRPGQGLEWIGQIYPGDGDTNYNGKFKGQATLTADKSSSTAYMQLSGLTSEDSAVYFCARKTISSVVDFYFDYWGQGTTVTVSSGGGGSGGGGSGGGGSDIELTQSPKFMSTSVGDRVSVTCKASQNVGTNVAWYQQKPGQSPKPLIYSATYRNSGVPDRFTGSGSGTDFTLTITNVQSKDLADYFCQQYNRYPYTSGGGTKLEIKRAAAIEVMYPPPYLDNEKSNGTIIHVKGKHLCPSPLFPGPSKPFWVLVVVGGVLACYSLLVTVAFIIFWVRSKRSRLLHSDYMNMTPRRPGPTRKHYQPYAPPRDFAAYRSRVKFSRSADAPAYQQGQNQLYNELNLGRREEYDVLDKRRGRDPEMGGKPRRKNPQEGLYNELQKDKMAEAYSEIGMKGERRRGKGHDGLYQGLSTATKDTYDALHMQALPPR
For the molecule B1, the Tumor Cell Killing Percentage (Nalm6 killed, 22 h co-culture, FACS with counting beads); E/T 0.024; CD19 level high was 32%; the Tumor Cell Killing Percentage (Nalm6 killed, 22 h co-culture, FACS with counting beads); E/T 0.024; CD19 level low is 16.3%; the Tumor Cell Killing Percentage (Nalm6 killed, 22 h co-culture, FACS with counting beads); E/T 0.024; CD19 level medium is 17.2%; the Tumor Cell Killing Percentage (Nalm6 killed, 22 h co-culture, FACS with counting beads); E/T 0.024; CD19 level very low stood at 0%. Besides, the Tumor Cell Killing Percentage (Nalm6 killed, 22 h co-culture, FACS with counting beads); E/T 0.12; CD19 level high amounted to 63.4%; the Tumor Cell Killing Percentage (Nalm6 killed, 22 h co-culture, FACS with counting beads); E/T 0.12; CD19 level low worked out at 53.3%; the Tumor Cell Killing Percentage (Nalm6 killed, 22 h co-culture, FACS with counting beads); E/T 0.12; CD19 level medium came out at 63.6%; the Tumor Cell Killing Percentage (Nalm6 killed, 22 h co-culture, FACS with counting beads); E/T 0.12; CD19 level very low stood at 0.4%. The same molecule yielded a Tumor Cell Killing Percentage (Nalm6 killed, 22 h co-culture, FACS with counting beads); E/T 0.6; CD19 level high of 84.4%; a Tumor Cell Killing Percentage (Nalm6 killed, 22 h co-culture, FACS with counting beads); E/T 0.6; CD19 level low of 77.2%; a Tumor Cell Killing Percentage (Nalm6 killed, 22 h co-culture, FACS with counting beads); E/T 0.6; CD19 level medium of 79.4%; a Tumor Cell Killing Percentage (Nalm6 killed, 22 h co-culture, FACS with counting beads); E/T 0.6; CD19 level very low of 8.37%.
